Reference: publication PMC4066673 (Biochemistry, 2012)

Biological target: the molecule itself
Assay: SEC-MALS

B1: His6-tagged (Δ1-39)hTHEM4 (enzyme, human, UniProt Q5T1C6 40-240, looked up)
chain: EVILKDCSVPNPSWNKDLRLLFDQFMKKCEDGSWKRLPSYKRTPTEWIQDFKTHFLDPKLMKEEQMSQAQLFTRSFDDGLGFEYVMFYNDIEKRMVCLFQGGPYLEGPPGFIHGGAIATMIDATVGMCAMMAGGIVMTANLNINYKRPIPLCSVVMINSQLDKVEGRKFFVSCNVQSVDEKTLYSEATSLFIKLNPAKSLT
stoichiometry N: 2
